Values belong to the substance of their own block, whether it stands above or below them.
Assays:
[1] = molecular target: full-length human G-CSF receptor (human) (UniProt Q99062); assay: cell-based or functional assay
[2] = molecular target: endogenous IL-3 receptors of BaF3 cells (UniProt P26952); assay: cell-based or functional assay
Sequence of UniProt P26952 (P26952 17-396): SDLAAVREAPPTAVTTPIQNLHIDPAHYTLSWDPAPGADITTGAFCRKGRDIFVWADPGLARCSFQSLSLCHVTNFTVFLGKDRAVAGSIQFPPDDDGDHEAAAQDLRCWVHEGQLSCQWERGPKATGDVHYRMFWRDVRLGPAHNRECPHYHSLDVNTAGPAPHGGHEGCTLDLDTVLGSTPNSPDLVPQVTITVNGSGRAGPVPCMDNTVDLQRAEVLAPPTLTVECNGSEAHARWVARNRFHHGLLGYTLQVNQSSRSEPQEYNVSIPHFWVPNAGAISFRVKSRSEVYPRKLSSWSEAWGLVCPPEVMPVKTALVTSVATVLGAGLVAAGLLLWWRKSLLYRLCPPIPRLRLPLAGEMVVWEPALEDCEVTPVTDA

Sequence of UniProt Q99062 (Q99062 25-836): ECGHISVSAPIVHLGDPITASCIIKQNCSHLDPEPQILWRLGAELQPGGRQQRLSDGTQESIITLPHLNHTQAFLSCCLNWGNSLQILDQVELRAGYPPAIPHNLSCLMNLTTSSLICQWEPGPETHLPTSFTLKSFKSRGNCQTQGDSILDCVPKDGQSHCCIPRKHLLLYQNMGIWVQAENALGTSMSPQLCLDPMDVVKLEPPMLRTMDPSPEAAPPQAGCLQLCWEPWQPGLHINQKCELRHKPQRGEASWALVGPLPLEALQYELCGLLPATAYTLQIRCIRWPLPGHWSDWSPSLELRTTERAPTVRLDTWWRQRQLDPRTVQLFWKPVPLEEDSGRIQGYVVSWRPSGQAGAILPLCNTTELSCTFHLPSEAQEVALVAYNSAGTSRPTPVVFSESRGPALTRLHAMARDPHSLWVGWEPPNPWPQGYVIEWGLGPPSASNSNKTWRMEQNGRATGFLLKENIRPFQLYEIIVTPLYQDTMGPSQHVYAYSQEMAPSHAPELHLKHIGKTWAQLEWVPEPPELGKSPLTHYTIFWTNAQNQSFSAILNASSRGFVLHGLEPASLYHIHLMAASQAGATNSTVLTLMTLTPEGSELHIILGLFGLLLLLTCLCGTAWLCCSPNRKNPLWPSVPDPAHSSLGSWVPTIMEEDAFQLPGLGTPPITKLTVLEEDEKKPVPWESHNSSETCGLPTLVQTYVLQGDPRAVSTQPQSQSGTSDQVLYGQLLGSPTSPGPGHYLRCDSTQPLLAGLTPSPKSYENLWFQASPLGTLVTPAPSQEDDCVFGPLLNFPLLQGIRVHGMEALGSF

- luminescence output-fold stimulation over background (assay medium alone); luciferase reporter, HuG-CSFR-luc (clone 40) cells, 0.8 ng/mL and 5.0 ng/mL GCSF, four hours [1]: 3 fold
Substance: G-CSF (ligand)

- PLAP reporter activity (4-MU fluorescence 360/460 nm), +IL-3, - filtration; 3X-RS-pGTPLAP in BaF3, 25 ng/ml rMuIL-3 [2]: 85
- PLAP reporter activity, +IL-3, + filtration; 3X-RS-pGTPLAP in BaF3 [2]: 82
- PLAP reporter activity, +IL-3, + filtration; 6X-RS-pGTPLAP in BaF3 [2]: 177
- PLAP reporter activity, +IL-3, + filtration; 9X-RS-pGTPLAP in BaF3 [2]: 257
- PLAP reporter activity, +IL-3, + filtration; 12X-RS-pGTPLAP in BaF3 [2]: 384
- PLAP reporter activity, +IL-3, + filtration; Greater than 12X-RS-pGTPLAP in BaF3 [2]: 389
- PLAP reporter activity, +IL-3, - filtration; 6X-RS-pGTPLAP in BaF3 [2]: 175
- PLAP reporter activity, +IL-3, - filtration; 9X-RS-pGTPLAP in BaF3 [2]: 276
- PLAP reporter activity, +IL-3, - filtration; 12X-RS-pGTPLAP in BaF3 [2]: 402
- PLAP reporter activity, +IL-3, - filtration; Greater than 12X-RS-pGTPLAP in BaF3 [2]: 384
- PLAP reporter activity, +IL-3, average - baseline; 3X-RS-pGTPLAP in BaF3 [2]: 70
- PLAP reporter activity, +IL-3, average - baseline; 6X-RS-pGTPLAP in BaF3 [2]: 160
- PLAP reporter activity, +IL-3, average - baseline; 9X-RS-pGTPLAP in BaF3 [2]: 250
- PLAP reporter activity, +IL-3, average - baseline; 12X-RS-pGTPLAP in BaF3 [2]: 375
- PLAP reporter activity, +IL-3, average - baseline; Greater than 12X-RS-pGTPLAP in BaF3 [2]: 370
- fold stimulation (avg +IL-3 / avg -IL-3); 3X-RS-pGTPLAP in BaF3 [2]: 3.5 fold
- fold stimulation (avg +IL-3 / avg -IL-3); 6X-RS-pGTPLAP in BaF3 [2]: 5.4 fold
- fold stimulation (avg +IL-3 / avg -IL-3); 9X-RS-pGTPLAP in BaF3 [2]: 6.2 fold
- fold stimulation (avg +IL-3 / avg -IL-3); 12X-RS-pGTPLAP in BaF3 [2]: 8.4 fold
- fold stimulation (avg +IL-3 / avg -IL-3); Greater than 12X-RS-pGTPLAP in BaF3 [2]: 11.2 fold
Substance: recombinant murine interleukin-3 (from UniProt P01586 33-166) (ligand)

Source: patent publication US7892733
